Data reported in patent US20030100068A1.

Biological target: RANK (Receptor Activator of NF-kappa B) on primary murine osteoblasts (murine (primary murine osteoblasts)) (UniProt O35305)
Assay: cell-based or functional assay

UniProt O35305, sequence (O35305 31-625): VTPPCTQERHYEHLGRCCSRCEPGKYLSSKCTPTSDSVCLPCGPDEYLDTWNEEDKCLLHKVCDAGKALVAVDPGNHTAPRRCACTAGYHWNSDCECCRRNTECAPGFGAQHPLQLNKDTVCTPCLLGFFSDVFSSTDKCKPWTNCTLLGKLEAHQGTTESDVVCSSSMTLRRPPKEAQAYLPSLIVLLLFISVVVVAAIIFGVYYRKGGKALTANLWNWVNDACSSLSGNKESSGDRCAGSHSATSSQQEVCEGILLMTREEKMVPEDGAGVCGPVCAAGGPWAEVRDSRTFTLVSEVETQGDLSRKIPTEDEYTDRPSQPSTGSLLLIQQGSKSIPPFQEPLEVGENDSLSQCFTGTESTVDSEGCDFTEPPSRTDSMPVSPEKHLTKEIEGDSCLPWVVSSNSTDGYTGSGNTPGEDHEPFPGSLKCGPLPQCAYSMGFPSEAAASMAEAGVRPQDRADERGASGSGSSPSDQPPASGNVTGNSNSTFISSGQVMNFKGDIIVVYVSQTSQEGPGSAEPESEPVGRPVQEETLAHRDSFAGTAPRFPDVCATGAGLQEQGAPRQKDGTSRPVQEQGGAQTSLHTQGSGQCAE

Row | Substance | surface residence or internalization of RANK on primary osteoblasts exposed to 5 nM ligand (confocal microscopy, anti-RANK staining against membrane dye) [h]
1 | GST-RANKL (fusion product of the external domain of RANKL and glutathione S-transferase) (from UniProt P08515) (ligand) | > 1
2 | cleaved RANKL (GST removed from GST-RANKL with human rhinovirus 3C protease) (ligand) | < 1
